# Data from the DeepSol protein solubility set.
# Experiment: soluble on expression in E. coli; label from the status in PepcDB or PDB records
row,Sequence,soluble on expression in E. coli
1,MSVIIRLKNLPMTAGASDVRTFFTGLKIPDGAVHIIGGDEGEVFVGFSSDDDARLAMTKDRLMIHGAEVRLFLSSKSEQNSVIAARKNNTYTSPVYKEYVPPVPSQPTPAQEQNWNSQTAGNPYAAKAGYEASYPPQNSNATRTSFNNQNSYSNRQEISQNHQENSVKLKDPFGGDYGGYKFQQQPPPQINRYGSGPPPSKPADLSNTRSLPPVNNPPPPHPIPQFPPEKQFGNKLGNNNDVSSRENHIQGSGNERVQGGDSWRDTSFNQPPRNDFKGNYNNAYSSNKYKNNYKAPEFNNDFNGGNKFNQFPPRNAQSTDLSENRAAPPQTGRKTLMPTPQAPFQNAPAPFTNGPSDDVNRPFQTGPPGNLGRNGPPPFQAGVPPPVIQNNMGRPIAPPAAMVRPPPQNFPGGAGGALPVFQAPVMTPIVPPVNKPMGAAAVEKFYIELTRLPTDLLRPAALEAFIHPTAPLTLSSVKTVFGPGGIHMHTIIRLDSIADYATMMRRNGEQGIKIQQSDKKSFDTAIDGIPIPSVSMVPSKEQRSHEDDDKKSRRSRWENTSPIRSPRRSPLRRDNRDRSRSRSPPRRRRRSRSPRRREEHTDPTRWCVQVTNVPFRMKDEELLEWFSEKVRPAKLTRTFYSDGNASDRWVAEFSSESLMKRSFGIRTLCTGRTLRLRYIDNAKADEILKIEDVYGEGKRQMNEEARLQHEVAEKANPPSFFNAPAATRGSGPMPPLNGTAPLPSGQQNGMNVPPPNGFNGAPMRGGFVPRGGNNFSQSRGGMMGRGGHGGGGGPQNFYQNGPNNFNNGPPEQQGQFRGNQGNDGGFRGGFRGGYRGRGGGRGGFQGGSRGDDSQPSQSELMELIKSIGPRGTVLSCNGFPKDVTLEDVVEFFNDYEPDRNSIRIRRGDDGVMTGECMLACQNQENARRASMDLDGQKLRNSVISVRII,not soluble
2,MSVKKKTQVRTGKMVRELMLADEDVNASLIMVYSENGVNAEIKIEGLTPKCNEELFLSGNVDWNKSVIYKIVDFTGNAEVGKVTLTAMNKNNVSLEIERVMWSKENKEAAEQEETQVEAAPKKEVVVEAPKAITPAPKPVTRVETPAMAPKPTPVPTPKPVSVEAAVELVTPAPVKKAVPTPVTKQETAPVAPAKPKQPALTETNSKLQENYVKLVKKTIEVCQDYELGIDIDDSIESLKEELQSQGISVTFDKEIMDVVNRLRSLQDKGIKVEKVLNLL,not soluble
3,MSVVIERIPKEAIPKSLLLLADPSERQIATYVQRGLTYVAKQGGSVIGVYVLLETRPKTMEIMNIAVAEHLQGKGIGKKLLRHAVETAKGYGMSKLEVGTGNSSVSQLALYQKCGFRIFSIDFDYFSKHYEEEIIENGIVCRDMIRLAMELNKNV,soluble
4,MSWIERIKSNITPTRKASIPEGVWTKCDSCGQVLYRAELERNLEVCPKCDHHMRMTARNRLHSLLDEGSLVELGSELEPKDVLKFRDSKKYKDRLASAQKETGEKDALVVMKGTLYGMPVVAAAFEFAFMGGSMGSVVGARFVRAVEQALEDNCPLICFSASGGARMQEALMSLMQMAKTSAALAKMQERGLPYISVLTDPTMGGVSASFAMLGDLNIAEPKALIGFAGPRVIEQTVREKLPPGFQRSEFLIEKGAIDMIVRRPEMRLKLASILAKLMNLPAPNPEAPREGVVVPPVPDQEPEA,soluble
5,MSWKIIEKYRRILAQEEGNSPKRRGGKLTVCLVYPNRYGVAMSNLGFQAVHALLNAESDILCERAFLPDPDDLREYRRSGARLLSLESQEPLSSFDIIAFSVSFESDYLNIPVIFDLAGIPALAAERTGSHPLVMGGGAALFLNPEPVADFLDLIVVGEGEAILPTFLDHIRADGIGDRAMFLAGVAGLPGIYVPSLYATEYDGARLVSREAKDGAPEQVKRIWMAEPDGRATVSEILTPGTEFSDMYLVEVSRGCGRGCRFCAAGFIYHPYRQRSLDAVKAAVAEGLSHRRKIGLVGAAVSDFREIGELCRHILAEGGTVSVSSLRIDRLDEGMIEVLKASGHKTVALAPEGGSQRIRDLINKNLTEEQILAACDLLIGHDILNLKLYFIIGLPTETMDDLEEMALLVEKIRKRVIAAARKNKRLGEIILSVNPFVPKPFTPFQWCGMEDTPSLEKKLKYLQQTVGRLSNVRLIAESPKDAWLQALLSRGDRRLSGFLLRAAELGNWKRAAREFPVDTDFLVHRTIPLDEMLPWDVIASADAERLRREYLKATPPRLEHHHHHH,not soluble
6,MSWQTYVDEHLMCDIDGQGEELAASAIVGHDGSVWAQSSSFPQFKPQEITGIMKDFEEPGHLAPTGLHLGGIKYMVIQGEAGAVIRGKKGSGGITIKKTGQALVFGIYEEPVTPGQCNMVVERLGDYLIDQGL,soluble
7,MSWTDERVELLKKMWGEGQSASQIAKELGGVTRNAVIGKVHRLGLSNRSSGAAPASTKAETKEKPAAATPRAEAKPKPAPRPEPLRAAPDPAPAPQPAEIKPIPARKQIIPAGQPLPPQPSANEISPEALAKVNEVEKKAKKLSLMELTERTCKWPVGDPATEDFWFCGLPVQQGKPYCEAHVGVAFQPMSSRRDRRRLEHHHHHH,soluble
8,MSYAKVSHWQMASTEQLIIPPNNDPRPDDQLVIVVVTADGIASPIPLNVSRREVIRQVEMLNRNLTAANRGDNYQGQASQLYDWFIKPIKLILENKKIENISFILDRGLRSLPMATMYDRQSGQYLIEDYSVGLMPSLSLTNRDYAPLTGAQILAMGAEEFANQNPLPAAAVEVDTITNQLWRGSAFLNDRFTVDNFVQSLATKEYRLVHLATHGEFLPGNRNNSFVVFSDRSLDLDEFANVGLDKPIDLMVLSACRTAVGDFDAELGFAGLAVKTGVKTAIGSLWYVSDEATFALMTSFYDRLQPAPIKAKALQQAQLSLLRGEIRVVDGNLVLGDGTNISLADLPADIRQRLATQDLSHPYFWSGFTLVGSPWLEHHHHHH,not soluble
9,MSYCCCQSNIPPDGCIRDGMPVFCGLFPSGYRAPPRSLSPPAFRSVLVSGHQPQYADCQTRTGRPVRSPVTPPPAHTSAVHGALSLPGQPADMAMMCFHSQPRDEYGETDDTGMYPAHWKDWPSGCTRSQSVYR,soluble
10,MSYGLIIVLMIILGIGLWHTKKYHRAVVNQVAHVWITKNAFEHTALGMAIVSPDCRFLKVNRAYGEITGYTRPELLKMAVKELTHPEDQEKDTPYLQEVFAGNIHSFTTVKRYIHKNGSTIWVRSTISAVRTERGNLKYFVLEHHHHHH,not soluble
11,MSYNNLLAIEKPVRYTGDEIGSRPKEDAELRFVLAFPDVYEVGMSHLGLQILYDILNREEGIAAERAYTPWPDREAQLRSLGESLATLESQTSLARADIIGFTLQYELSYTNILTMLDLAGIPFRAAERGDEFPLVIAGGPCACNPEPLADFLDAVLLGDGEEAVVEIAAACLERKRNGESKQWLLERLASIDGVYVPSFFEPRYHDDGTIDAIIPLRPAHGRVRRRFLSDLDTAPYPTAPVVPFLKTIHDRVSIEIGRGCTRGCRFCQAGYLYRPVRERSPETILKLVEETLRNTGYDEVSLLSLSTGDYGCLTPLLRELMVRYAHERIAVALPSLRVGSLSQELVEEIRKVRKTGFTLAPEAGSERLRTIINKGISEEDLLRNAFEAFSNGWRVIKLYFMIGLPGETEEDLVGIADLARKVKQEGKRAGSGGEVNVSVSTFVPKPHTPFQWEPQITTEETVAKQRFLRDELKKRKLGLKWHDAPLSFMEGVFARGDRRLGAVLAKAWELGCRFDGWGDRLKSTTWHEAFAVCGIDPAFYHRRRGIDETLPWDHLDFGVTRAFLRQELEKAWAGEPTGDCRTGRCTGCGICDFDRIAMRTTDPAWQKGLEHHHHHH,not soluble
12,MSYNYVVTAQKPTAVNGCVTGHFTSAEDLNLLIAKNTRLEIYVVTAEGLRPVKEVGMYGKIAVMELFRPKGESKDLLFILTAKYNACILEYKQSGESIDIITRAHGNVQDRIGRPSETGIIGIIDPECRMIGLRLYDGLFKVIPLDRDNKELKAFNIRLEELHVIDVKFLYGCQAPTICFVYQDPQGRHVKTYEVSLREKEFNKGPWKQENVEAEASMVIAVPEPFGGAIIIGQESITYHNGDKYLAIAPPIIKQSTIVCHNRVDPNGSRYLLGDMEGRLFMLLLEKEEQMDGTVTLKDLRVELLGETSIAECLTYLDNGVVFVGSRLGDSQLVKLNVDSNEQGSYVVAMETFTNLGPIVDMCVVDLERQGQGQLVTCSGAFKEGSLRIIRNGIGIHEHASIDLPGIKGLWPLRSDPNRETYDTLVLSFVGQTRVLMLNGEEVEETELMGFVDDQQTFFCGNVAHQQLIQITSASVRLVSQEPKALVSEWKEPQAKNISVASCNSSQVVVAVGRALYYLQIHPQELRQISHTEMEHEVACLDITPLGDSNGLSPLCAIGLWTDISARILKLPSFELLHKEMLGGEIIPRSILMTTFESSHYLLCALGDGALFYFGLNIETGLLSDRKKVTLGTQPTVLRTFRSLSTTNVFACSDRPTVIYSSNHKLVFSNVNLKEVNYMCPLNSDGYPDSLALANNSTLTIGTIDEIQKLHIRTVPLYESPRKICYQEVSQCFGVLSSRIEVQDTSGGTTALRPSASTQALSSSVSSSKLFSSSTAPHETSFGEEVEVHNLLIIDQHTFEVLHAHQFLQNEYALSLVSCKLGKDPNTYFIVGTAMVYPEEAEPKQGRIVVFQYSDGKLQTVAEKEVKGAVYSMVEFNGKLLASINSTVRLYEWTTEKDVRTECNHYNNIMALYLKTKGDFILVGDLMRSVLLLAYKPMEGNFEEIARDFNPNWMSAVEILDDDNFLGAENAFNLFVCQKDSAATTDEERQHLQEVGLFHLGEFVNVFCHGSLVMQNLGETSTPTQGSVLFGTVNGMIGLVTSLSESWYNLLLDMQNRLNKVIKSVGKIEHSFWRSFHTERKTEPATGFIDGDLIESFLDISRPKMQEVVANLQYDDGSGMKREATADDLIKVVEELTRIH,soluble
13,MSYQPTSLTVASYNLRNANGSDSARGDGWGQRYPVIAQMVQYHDFDIFGTQECFLHQLKDMKEALPGYDYIGVGRDDGKDKGEHSAIFYRTDKFDIVEKGDFWLSETPDVPSKGWDAVLPRICSWGHFKCKDTGFEFLFFNLHMDHIGKKARVESAFLVQEKMKELGRGKNLPAILTGDFNVDQTHQSYDAFVSKGVLCDSYEKCDYRYALNGTFNNFDPNSFTESRIDHIFVSPSFHVKRYGVLTDTYRSVRENSKKEDVRDCPEEITIKAYEARTPSDHFPVKVELVFDLEHHHHHH,soluble
14,MSYRMFDYLVPNVNFFGPNAISVVGERCQLLGGKKALLVTDKGLRAIKDGAVDKTLHYLREAGIEVAIFDGVEPNPKDTNVRDGLAVFRREQCDIIVTVGGGSPHDCGKGIGIAATHEGDLYQYAGIETLTNPLPPIVAVNTTAGTASEVTRHCVLTNTETKVKFVIVSWRNLPSVSINDPLLMIGKPAALTAATGMDALTHAVEAYISKDANPVTDAAAMQAIRLIARNLRQAVALGSNLQAREYMAYASLLAGMAFNNANLGYVHAMAHQLGGLYDMPHGVANAVLLPHVARYNLIANPEKFADIAELMGENITGLSTLDAAEKAIAAITRLSMDIGIPQHLRDLGVKETDFPYMAEMALKDGNAFSNPRKGNEQEIAAIFRQAF,soluble
15,MSYSIDNPGGGDCGFYALAIGLISIIQNEYKLHGKSKTYDRWKQVENIYGVRLQDILNIDLTKLHYSPYTYKSELLFLLQMSLRNIAVIVNKEDLVKRIIEEGRSKDQTKIEGSNAYCKFMELVQLYLYRRGSLERISQFNELALSPEIVQTARDIARMLRPILRNQPFHQAQKIENAFVKEVLLNDVLSGNTINSNSIILKSLEKIKEQGRWATHDDLKEIAELLKINLNVVGQPNGKPIPEYPTVTLKNLSNTHWITQVESLQGPRQYSTPSKRAFGYETLSDRAVPLKEEQTLDRAFRTETQSERTRRYNQHFETLFDTLSPYGFFPHVQSKRNVHVFGKAQTGLESDEALAAQLQEAELRRILY,not soluble
